Measurements taken from IntAct's records for PubMed 20078863.

Assays:
Thra, P63059-2 [1] = target: Thra, P63059-2
Thra, P63059-2 [2] = target: Thra, P63059-2; remark: listed apart in the source

Chain of Transforming acidic coiled-coil-containing protein 1 (Homo sapiens), O75410-9 L580A;I581A (O75410 other isoform, or with tags, fused parts or gaps L580A;I581A): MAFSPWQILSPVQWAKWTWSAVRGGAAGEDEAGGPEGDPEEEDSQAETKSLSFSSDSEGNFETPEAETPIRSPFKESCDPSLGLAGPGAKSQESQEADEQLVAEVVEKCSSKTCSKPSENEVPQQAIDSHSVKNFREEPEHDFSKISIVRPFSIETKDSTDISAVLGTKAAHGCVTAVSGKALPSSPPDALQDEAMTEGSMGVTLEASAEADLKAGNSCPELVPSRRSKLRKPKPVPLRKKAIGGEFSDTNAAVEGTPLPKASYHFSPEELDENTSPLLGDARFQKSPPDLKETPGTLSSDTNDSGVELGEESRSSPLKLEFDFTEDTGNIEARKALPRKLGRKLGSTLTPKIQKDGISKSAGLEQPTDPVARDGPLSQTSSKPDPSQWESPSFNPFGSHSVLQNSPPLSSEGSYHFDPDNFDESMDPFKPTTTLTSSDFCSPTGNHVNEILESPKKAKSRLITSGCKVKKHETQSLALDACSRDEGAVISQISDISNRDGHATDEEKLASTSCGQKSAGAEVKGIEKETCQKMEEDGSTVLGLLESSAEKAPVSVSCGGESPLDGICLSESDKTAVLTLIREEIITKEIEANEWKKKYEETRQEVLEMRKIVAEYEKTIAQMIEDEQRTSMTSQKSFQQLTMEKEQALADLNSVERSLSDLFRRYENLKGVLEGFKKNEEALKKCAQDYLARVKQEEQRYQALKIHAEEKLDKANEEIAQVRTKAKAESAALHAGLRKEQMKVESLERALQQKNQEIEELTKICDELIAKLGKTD
Chain of Thra, P63059-2 (P63059 other isoform, or with tags, fused parts or gaps): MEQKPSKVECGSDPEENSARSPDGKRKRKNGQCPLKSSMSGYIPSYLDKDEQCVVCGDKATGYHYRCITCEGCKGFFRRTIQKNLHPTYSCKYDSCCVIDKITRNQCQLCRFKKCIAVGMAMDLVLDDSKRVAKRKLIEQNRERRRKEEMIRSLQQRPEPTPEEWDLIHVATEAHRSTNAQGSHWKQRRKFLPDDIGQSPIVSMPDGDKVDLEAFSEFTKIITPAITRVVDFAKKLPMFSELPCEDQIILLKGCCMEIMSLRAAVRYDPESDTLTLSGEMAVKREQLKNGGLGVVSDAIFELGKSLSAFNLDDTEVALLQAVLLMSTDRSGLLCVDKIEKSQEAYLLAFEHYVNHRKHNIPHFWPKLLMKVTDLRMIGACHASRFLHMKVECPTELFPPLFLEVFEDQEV
Chain of Thra, P63059-1 (P63059 whole entry): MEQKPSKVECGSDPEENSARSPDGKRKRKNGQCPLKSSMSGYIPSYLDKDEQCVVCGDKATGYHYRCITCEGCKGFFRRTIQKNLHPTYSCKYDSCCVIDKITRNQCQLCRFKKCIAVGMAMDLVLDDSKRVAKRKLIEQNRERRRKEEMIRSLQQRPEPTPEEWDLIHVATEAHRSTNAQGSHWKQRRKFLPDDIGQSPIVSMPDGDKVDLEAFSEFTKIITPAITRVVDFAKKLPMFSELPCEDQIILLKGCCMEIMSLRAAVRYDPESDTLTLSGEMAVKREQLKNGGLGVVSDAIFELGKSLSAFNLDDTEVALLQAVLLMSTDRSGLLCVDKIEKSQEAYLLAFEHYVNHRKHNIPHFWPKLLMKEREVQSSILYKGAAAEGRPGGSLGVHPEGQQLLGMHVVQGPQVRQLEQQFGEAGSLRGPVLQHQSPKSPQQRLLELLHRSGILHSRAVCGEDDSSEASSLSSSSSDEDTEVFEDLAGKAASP
Chain of Transforming acidic coiled-coil-containing protein 1 (Homo sapiens), O75410-10 L170A;I171A (O75410 other isoform, or with tags, fused parts or gaps L170A;I171A): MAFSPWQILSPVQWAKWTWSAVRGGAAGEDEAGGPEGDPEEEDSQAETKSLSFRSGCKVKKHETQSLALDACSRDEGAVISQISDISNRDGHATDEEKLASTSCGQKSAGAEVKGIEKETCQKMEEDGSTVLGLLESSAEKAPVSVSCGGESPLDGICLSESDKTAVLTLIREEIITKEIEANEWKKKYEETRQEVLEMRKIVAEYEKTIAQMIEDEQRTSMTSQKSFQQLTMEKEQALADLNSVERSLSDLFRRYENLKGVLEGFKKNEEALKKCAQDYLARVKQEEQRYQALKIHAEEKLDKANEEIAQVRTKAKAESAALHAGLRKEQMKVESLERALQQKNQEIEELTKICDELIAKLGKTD

Q: What does the source list for “Transforming acidic coiled-coil-containing protein 1 (Homo sapiens), O75410-9 L580A;I581A”?
A: effect of a mutation on the interaction (Thra, P63059-2 [1]): decreasing interaction strength; effect of a mutation on the interaction (Thra, P63059-1): disrupting interaction strength

Q: For “Transforming acidic coiled-coil-containing protein 1 (Homo sapiens), O75410-10 L170A;I171A”, which “effect of a mutation on the interaction” value (Thra, P63059-2 [2]) is on record?
A: disrupting interaction strength
